According to publication PMC8639819:

Columns and labels:
[1] = Western blot; details: glycan lost; control: E14 cells
[2] = immunofluorescence confocal microscopy; details: glycan lost; control: E14 cells
[3] = Western blot, stable 2TS22C cells; details: glycan lost; control: WT FLAG-Sox2
[4] = 3D z-stack immunofluorescence, 2TS22C cells; details: glycan lost; control: WT FLAG-Sox2

Sequence of Sox2: T258A (chain, as listed by the source T258A): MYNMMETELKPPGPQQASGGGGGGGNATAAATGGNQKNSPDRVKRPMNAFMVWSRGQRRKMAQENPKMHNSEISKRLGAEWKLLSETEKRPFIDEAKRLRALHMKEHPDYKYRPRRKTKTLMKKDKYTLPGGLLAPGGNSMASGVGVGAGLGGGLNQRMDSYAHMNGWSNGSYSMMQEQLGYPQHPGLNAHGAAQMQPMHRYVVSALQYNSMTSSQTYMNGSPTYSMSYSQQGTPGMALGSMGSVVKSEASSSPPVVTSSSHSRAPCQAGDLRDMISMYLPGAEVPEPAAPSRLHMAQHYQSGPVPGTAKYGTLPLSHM
Sequence of Sox2: E14-Sox2TA/WT (chain, as listed by the source): as the sequence (chain, as listed by the source T258A) above
Sequence of Sox2: S248A/T258A (chain, as listed by the source S248A T258A): as the sequence (chain, as listed by the source T258A) above
Sequence of Sox2: S248A (chain, as listed by the source S248A): as the sequence (chain, as listed by the source T258A) above

Substance	expression_or_secretion [1]	localisation_or_trafficking [2]	expression_or_secretion [3]	localisation_or_trafficking [4]
Sox2: E14-Sox2TA/WT	no change	no change	–	–
Sox2: S248A	–	–	no change	–
Sox2: S248A/T258A	–	–	no change	–
Sox2: T258A	–	–	no change	no change
